{
  "source": "patent US20240299596A1",
  "about": "“METHODS AND MATERIALS FOR COMBINING BIOLOGICS WITH MULTIPLE CHELATORS” (priority 2021, published 2024)",
  "key": {"[1]": {"assay": "Stability of ^64Cu-Conjugate 2 over time by HPLC", "assay_type": "physicochemical", "protocol": "The method used a Schmadzu HPLC system, which was equipped with dual UV and radioactivity detectors. […] Conjugate 2 was tested with varying concentrations (Table 18A below). […] For analysis, the compound was dissolved in water and a calibration curve was prepared to estimate the specific activity of the synthesized compound. Depending upon the chemical nature of the compound a different retention time was observed.\nThe stability of the ^64Cu-Conjugate 2 was tested using the same HPLC method as the Conjugate 2 at various time points. The time points included: 40 minutes (Tables 23-24 and FIG. 22), 2 hours (Tables 25-26 and FIG. 23), 4 hours (Tables 27-28 and FIG. 24), and 8 hours (Tables 29-30 and FIG. 25)."}, "[2]": {"assay": "Micro PET imaging and ex-vivo biodistribution (SUV) in normal nude mice", "parameters": "species or system normal nude mice (strain: 002019, NU/J)", "conditions": "mouse", "excerpt": "in accordance with Loening AM and Gambhir SS. […] Mol Imaging 2003; 2:131-7."}, "[3]": {"assay": "Stability of ^64Cu-Conjugate 2 over time by TLC", "assay_type": "physicochemical", "conditions": "silica gel, 0.1M sodium citrate", "protocol": "The Conjugate-1 was radiolabeled with Cu-64 using [^64Cu]CuCl2 produced from cyclotron and formulated in 0.1M hydrochloric acid. Different amounts (50 μg, 100 μg) of Conjugate-1 were used and the pH was adjusted to 5.0 using 0.1M sodium acetate after addition of [^64Cu]CuCl2. The resultant reaction mixture was stirred at room temperature for different durations as 10 minutes, 20 minutes, 30 minutes, and 40 minutes to optimize radiolabeling yield with reaction time. The progress and yield of the reactions were monitored by radioactive thin layer chromatography (r-TLC) using iTLC (silica gel coated on paper, Agilent Technologies Inc., Santa Clara, CA) and 0.1M sodium citrate as a mobile phase. In this r-TLC condition, unconjugated (Free)^64Cu moves to the solvent front of the r-TLC and radiolabeled ^64Cu-Conjugate-1 stays at the origin of the r-TLC plate. Based on our tested radiolabeling condition, the reaction achieved >99% yield radiolabeling in 10 minutes and at all other time points at pH 5.0 using sodium acetate as a reaction buffer via stirring at room temperature. Formation of radiolabeled ^64Cu-Conjugate-1 was also confirmed by radio HPLC.\nThe TLC was performed with a silica gel solid phase and 0.1M sodium citrate mobile phase.\nThe stability of the ^64Cu-Conjugate 2 was also analyzed by TLC using the same TLC method as the ^64Cu-Conjugate 1 at various time points. The time points included: 40 minutes (Table 31 and FIG. 26), 2 hours (Table 32 and FIG. 27), 4 hours (Table 33 and FIG. 28), 8 hours (Table 34 and FIG. 29)."}, "in vitro": {"assay": "in vitro", "assay_type": "in vitro ADME, mouse", "protocol": "The stability of the ^64Cu-Conjugate 2 was tested in mouse serum and human serum at 37° C. using the Rad-iTLC method. Approximately 1.0 mL of mouse serum was extracted from blood of the mice and ˜1.0 mL of human serum was extracted from blood obtained from the Mayo Clinic's blood bank to measure the stability of radiolabeled ^64Cu-Conjugate 2. Obtained mouse and human serums were distributed separately in 100 μL aliquots in 1.5 mL microcentrifuge tubes (n=3). To which, 20 μL of ^64Cu-Conjugate2 was added in each 100 μL serum aliquot and mixed thoroughly. From this mixture, a small amount of reaction mixture was taken out using glass capillary tube and immediately spotted on an iTLC plate for analysis as T=0 timepoint (n=3). The rest of the reaction mixtures were incubated at 37° C. for up to 2 hours and small fractions were taken out at 1 hour and 2 hours post incubation to analyze the stability of ^64Cu-Conjugate 2 over time using radioactive thin layer chromatography (r-TLC). To do r-TLC analysis, iTLC (silica gel coated on paper, Agilent Technologies Inc., Santa Clara, CA) was used as a solid phase and 0.1M sodium citrate as a mobile phase. In this r-TLC condition, unconjugated (free)^64Cu moves to the solvent front of the r-TLC and radiolabeled ^64Cu-Conjugate 2 stays at the origin of the r-TLC plate. Based on the relative % of radioactivity at origin and at the solvent front, the % of intact ^64Cu-Conjugate2 and free ^64Cu was measured as presented in Tables 35 and 36."}},
  "data": [
    {"smiles": "NC(=O)CN1CCN(CC(N)=O)CCN(CC(N)=O)C(Cc2ccc(NC(=S)NCCN(CCNC(=S)Nc3ccc(CC4CN(CC(=O)O)CCN(CC(=O)O)CCN4CC(=O)O)cc3)C(=O)Cc3ccc(NC(=S)NCCCC[C@H](NC(=O)N[C@@H](CCC(=O)O)C(=O)O)C(=O)O)cc3)cc2)CN(CC(N)=O)CC1", "note": "(some centres unmarked) [^64Cu-Conjugate 2, metal not drawn]", "values": [
      {"measurement": "% Conc. of main HPLC peak", "setting": "[1]; 40 minutes, Table 23 trace, peak at Ret. Time 9.335", "result": 99.894, "unit": "%"},
      {"measurement": "% Conc. of main HPLC peak", "setting": "[1]; 40 minutes, Table 24 trace, peak at Ret. Time 8.609", "result": 98.297, "unit": "%"},
      {"measurement": "% Conc. of main HPLC peak", "setting": "[1]; 2 hours, Table 25 trace, peak at Ret. Time 9.298", "result": 99.770, "unit": "%"},
      {"measurement": "% Conc. of main HPLC peak", "setting": "[1]; 2 hours, Table 26 trace, peak at Ret. Time 8.572", "result": 98.718, "unit": "%"},
      {"measurement": "% Conc. of main HPLC peak", "setting": "[1]; 4 hours, Table 27 trace, peak at Ret. Time 9.286", "result": 99.463, "unit": "%"},
      {"measurement": "% Conc. of main HPLC peak", "setting": "[1]; 4 hours, Table 28 trace, peak at Ret. Time 8.555", "result": 98.453, "unit": "%"},
      {"measurement": "% Conc. of main HPLC peak", "setting": "[1]; 8 hours, Table 29 trace, peak at Ret. Time 9.359", "result": 99.107, "unit": "%"},
      {"measurement": "% Conc. of main HPLC peak", "setting": "[1]; 8 hours, Table 30 trace, peak at Ret. Time 8.562", "result": 98.173, "unit": "%"},
      {"measurement": "Site of accumulation in PET image", "setting": "[2]", "result": "accumulates in proximal tubules in the kidney"},
      {"measurement": "% of ROI, Rgn 1 (origin, radiolabeled conjugate)", "setting": "[3]; 40 minutes", "result": 99.62, "unit": "%"},
      {"measurement": "% of ROI, Rgn 2 (solvent front, free ^64Cu)", "setting": "[3]; 40 minutes", "result": 0.38, "unit": "%"},
      {"measurement": "% of ROI, Rgn 1 (origin, radiolabeled conjugate)", "setting": "[3]; 2 hours", "result": 99.40, "unit": "%"},
      {"measurement": "% of ROI, Rgn 2 (solvent front, free ^64Cu)", "setting": "[3]; 2 hours", "result": 0.60, "unit": "%"},
      {"measurement": "% of ROI, Rgn 2 (solvent front, free ^64Cu)", "setting": "[3]; 4 hours", "result": 0.36, "unit": "%"},
      {"measurement": "% of ROI, Rgn 1 (origin, radiolabeled conjugate)", "setting": "[3]; 8 hours", "result": 99.19, "unit": "%"},
      {"measurement": "% of ROI, Rgn 2 (solvent front, free ^64Cu)", "setting": "[3]; 8 hours", "result": 0.81, "unit": "%"},
      {"measurement": "Intact (%), Average", "setting": "in vitro", "result": 98.26, "unit": "%"},
      {"measurement": "Stability in mouse serum (in words)", "setting": "in vitro", "result": "stable up to 2 hours in mouse serum"},
      {"measurement": "remaining at 1 h", "setting": "in vitro; mouse, serum", "result": 96.8, "unit": "%"},
      {"measurement": "remaining at 2 h", "setting": "in vitro; mouse, serum", "result": 97.6, "unit": "%"}
    ]}
  ]
}
